The source of these data is publication doi:10.1101/2022.04.05.486672.

Assay [1] concerns the target SIRK1-ECD together with co-receptor QSK1-ECD (about 20 nM each) (Arabidopsis). Description: MST.
Assay [2] has as its target SIRK1-ECD-HA-StrepII (extracellular domain of SIRK1) (Arabidopsis). Description: MST.

As a reminder, the Kd is the free concentration of one partner at which half of the binding sites on the other are occupied at equilibrium, for simple one-to-one binding. Consider VSGNVAARKGKQQTSSGKGGGTN [PEP7 (Elicitor Peptide 7), synthetic, untagged], for which the Kd in assay [1] stood at 57 nM; in assay [2], 1440 nM.
